# Test results taken from publication PMC6697735, “Generation of amine dehydrogenases with increased catalytic performance and substrate scope from ε-deaminating L-Lysine dehydrogenase” (Nature Communications, 2019).
# Legend:
# [1] = target: T1, LE-AmDH-v1 (ε-deaminating L-lysine dehydrogenase LysEDH F173A) (Geobacillus stearothermophilus, UniProt Q9AJC6, F173A); assay: steady-state kinetics, Lineweaver-Burk competitive product inhibition, NADH oxidation at […] nm, […] °C; type: biochemical
# T1 construct: gene lysDH
# CC(=O)c1ccccc1 = assay: purified protein; details: NADH model: phenyl ring in the new hydrophobic cavity created by F173A
# O=Cc1ccccc1 = assay: purified protein; details: NADH
Compound,Ki [1] [mM],Km (CC(=O)c1ccccc1) [mM],Km (O=Cc1ccccc1) [mM]
C[C@@H](N)c1ccccc1 [(R)-8b],4.48,–,–
LE-AmDH-v1 (ε-deaminating L-lysine dehydrogenase LysEDH F173A) (Geobacillus stearothermophilus; F173A),–,5.5 ± 0.5,4.9 ± 0.5
